Test results: IntAct's records for PubMed 29769717

Target: srrt_arath SE (UniProt Q9ZVD0)
Chain of UniProt Q9ZVD0 (Q9ZVD0 whole entry): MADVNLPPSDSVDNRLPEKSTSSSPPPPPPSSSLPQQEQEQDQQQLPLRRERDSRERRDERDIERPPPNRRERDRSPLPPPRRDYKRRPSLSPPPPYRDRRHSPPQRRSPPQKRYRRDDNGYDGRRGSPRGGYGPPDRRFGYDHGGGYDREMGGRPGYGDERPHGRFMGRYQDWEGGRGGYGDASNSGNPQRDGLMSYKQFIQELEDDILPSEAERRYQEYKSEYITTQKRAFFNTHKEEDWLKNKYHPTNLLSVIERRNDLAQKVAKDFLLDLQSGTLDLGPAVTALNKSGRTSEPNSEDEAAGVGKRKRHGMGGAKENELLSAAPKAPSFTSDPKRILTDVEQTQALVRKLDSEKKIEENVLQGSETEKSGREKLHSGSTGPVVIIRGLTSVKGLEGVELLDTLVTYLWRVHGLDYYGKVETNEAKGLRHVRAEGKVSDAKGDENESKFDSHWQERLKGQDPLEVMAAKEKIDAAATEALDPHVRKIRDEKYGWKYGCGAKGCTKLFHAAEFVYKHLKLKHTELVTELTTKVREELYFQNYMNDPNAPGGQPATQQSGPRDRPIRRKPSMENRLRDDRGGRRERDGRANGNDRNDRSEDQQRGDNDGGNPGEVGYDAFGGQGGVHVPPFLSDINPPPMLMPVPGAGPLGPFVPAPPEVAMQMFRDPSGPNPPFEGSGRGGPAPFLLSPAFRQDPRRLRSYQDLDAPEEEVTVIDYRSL

ATP-dependent helicase BRM (Arabidopsis thaliana (Mouse-ear cress)), Q6EVK6 E1747A
effect of a mutation on the interaction: disrupting interaction
